What was measured:
[1] = target: T1, E. rectale acyl carrier protein (T protein; gene ereT)
T1 chain: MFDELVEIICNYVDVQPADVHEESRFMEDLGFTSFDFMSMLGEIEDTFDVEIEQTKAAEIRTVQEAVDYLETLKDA

[2] = target: T2, C. eutactus acyl carrier protein (T protein; gene ceuT)
T2 chain: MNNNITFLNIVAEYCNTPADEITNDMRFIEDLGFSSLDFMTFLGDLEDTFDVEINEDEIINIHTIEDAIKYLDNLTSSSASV

B1: E. rectale fatty acyl-ACP synthetase (A protein; gene ereA) (protein)
chain: MLFHTIPDILSYANEAYGADDAIRWKKSKNEIESRTYSELKNDTDSFANAIEKLGKKGQHIAVIGPSSYEWIVSYLAITESGSVAVPIDASLPAADICELLDRASVRMLIFDEARSDVAEAAAKSCHDINVYVSMNSTEHCPQVLSFKGLIDDNRGSYEPAVAEDALCTIMFTSGTTGKSKGVMLTQNNLAENATCLDMKIGPHTVILSVLPIHHAYCLSMDILKGISLGSVICINDSIMRMAKNIQLFTPDMILMVPLMIETFARKLEEVRAAGLPAEPVRKKMFGERLHTICSGGAYLNPDYVDLFAEFGITILQGYGMTECSPVISTNLSWDIRKNSVGKLMPNCEAKTVDGELFVRGTSVMQGYYKMPKETEETLSDGWLHTGDLGYVDEDGYIYLTGRRKNLIITKNGENVSPEELENALSVNHLIKEIIVRESEGVIEAEIFPDREYAQNTGIADIRSALQALIDEYNVNAPAYKRIYSIKVRESEFEKTASRKIKRS
- LC-MS/MS detection of fatty acid thiotemplated T protein fragment after reaction with the A protein, Sfp and lauric acid [1]: This was further confirmed by the detection of fatty acid thiotemplated T protein fragment using LC-MS/MS (FIG. 22)
- PPi level from ATP consumption (A and T proteins relative to negative control) [1]: Up to 30-fold increase in PPi level relative to negative control was observed with fatty acid substrates
- adenylation activity after swapping the T protein between the C. eutactus and E. rectale pathways [2]: While the C protein lost activity, the A protein retained activity after swapping the T protein

B2: E. rectale condensation domain protein (fatty acyl-transferase, C protein; gene ereC) (protein)
chain: MKTRKGHNVYPITVAQKFHLYYAKYCPNMAVLNIGTSLTIGTELDWNVLRDSINYAYARNEAMRIRFTRDKDGECYQYIADVDEDFKERTVDFKDFTDVTMEEAENEMQGWTQVPFEFEDSPMTKIVMIKMPDGFNGVYFLGHHMVVDAQSLIAFLKDIIEIYCNAMYEGVPFPKDMCSYIEQLKKDLAYEAGSKAQLRDREFFEKLIRQSEPIYNGIDGTAKLDAARELMHDNKLRSAFNASDDVTSALDIFHLEAEPTKRLMDFCEKYHISLACLLLMGIRTFFQKENGFDDVSVNNAIARRATLKEKKSGGTRIHSFPFRTCFSKDVRFIDAVYTIRDKQNELFRHANYNPTEYFALRSKTYPQPKAGLTYEPMSLTYQPMTLKEKGLNDLGDIKYKTKWYPNGMTTQAMYLTVMHRPEDNGLDFSFEHQVKAVSRKQLEYMYYYLCKIMFKGAENPELTIGEIIKLV
- enzymatic production of hybrid FAA with the T and C protein pair from the same pathway and a swapped A protein [1]: Swapping the A domain, while retaining the T and C protein pair from the same pathway, permitted the enzymatic production of hybrid FAA that incorporated the substrates from two different pathways
- condensation activity (enzyme-catalysed FAA product formation) after swapping the T protein between the C. eutactus and E. rectale pathways [2]: While the C protein lost activity, the A protein retained activity after swapping the T protein

B3: C. eutactus fatty acyl-ACP synthetase (A protein; gene ceuA) (protein)
chain: MEENILEIVEKSCRIHRDVIAVKYLSHREIVEKSYGDMWDDIRKTAVILRNNGLCGTHIALVGSSSYEWICAYMAILFTGNTAVPLDANLSVSELHELLNRSGSIALFCGASRKDVITELTDDCPEMNIVFTMEKKVDIEHLEGADSNPQLAILSFEQLRNEITIPDDFAFADQDKDKMCTLMYTSGTTGKSKGVMLSQFNLAQNVENVYVNLEPGVTILSVLPIHHAFCLTMEWMKGISLGATICINDSLLHMLKNMKRFQPVGMLMVPLMVETIYKKLKDVNPLLPKKLVAKEAFGGKLEYIFCGGAYLDPMYVTEFKKYGIDILQGYGMTECSPVICSNNHRYNRPGSVGKLLDNCAVRFVDEEIQVKGTSVMSGYYDMPNETAEAFQDGWLCTGDLGYLDSDGFMYITGRKKNLIILANGENISPEELEGKLSIEPLISEIVITGDGNHLTAHIYPDQDFVDKKHMDAARTSEKLQKIIDTFNKNQPTYKRISALDIRKEPFEKSSTKKIKRNLV
- adenylation activity after swapping the T protein between the C. eutactus and E. rectale pathways [1]: While the C protein lost activity, the A protein retained activity after swapping the T protein

B4: C. eutactus condensation domain protein (fatty acyl-transferase, C protein; gene ceuC) (protein)
chain: MPRKYYPLTPSQKIHFKPIIEFGTQQVANISICMTLQAPLDFGLLKKCIQLEYERYECLRIRFTKVDQNGEVRQYVVSRDDRDIDYENLSWLSGDDAYHRMEEWSRIPFDGDNIPMNVIKMISLPGGYNGLYIKIDHRLMDSCGAIVMVNDIMELYCHYKFGTPYPEDMASFTDMVERDLKKSTDEKRVSKDRMYWQNVLEENGEPIYSDIQGQRILQESRRLHNDKSLRAADQEINDLSVATKNYHLDAEPTQNLLDFCMNNHISMTNLILMGIRTYLSKANGGQTDISIRNYVSRRSTHAEWVSGGSRAMAYPCRTIIDPDTEFLDAVFMIQDVQNHVYRHCNYDPELLSDQMKEMFHTPPHTTYESVGLTYQPLPIRLKNPHLENISVRSMWIPNGTSKQKIYLTVMHSANDLGLNFYFRYQTASLSEQDIELFYYYLMKIIFKGIAEPEMTVGEIIECI
- condensation activity (enzyme-catalysed FAA product formation) after swapping the T protein between the C. eutactus and E. rectale pathways [1]: While the C protein lost activity, the A protein retained activity after swapping the T protein
- enzymatic production of hybrid FAA with the T and C protein pair from the same pathway and a swapped A protein [2]: Swapping the A domain, while retaining the T and C protein pair from the same pathway, permitted the enzymatic production of hybrid FAA that incorporated the substrates from two different pathways

Source: US20200299738
